We go through two substances from publication PMC5618021.

In test [1] the target is MERS-five-helix bundle (MERS-5HB) (MERS-CoV) (UniProt K0BRG7). In words: ELISA. Background: ELISA stands for enzyme-linked immunosorbent assay.
Test [2] concerns the target MERS-HR2P (MERS-CoV). Nature of the test: BLI. In general terms: In BLI a coated tip is dipped into the sample, and binding shifts an interference pattern.
The target in test [3] is MERS-HR2P (MERS-CoV). Nature of the test: ELISA.

What is called EC50 is the concentration that produces a half-maximal response. A high value points to lower potency in that assay. In general, Kd refers to the concentration at which binding is half-saturated. High values mean a looser complex, low ones a tighter complex. The term koff denotes the rate constant with which the complex falls apart. A lower koff goes with a long-lived complex. The term kon denotes the rate constant with which the complex forms. Read a high kon as fast association.

Turning to MERS-HR2P (peptide), the concentration giving a half-maximal response (EC50) in test [1] is 31.8 nM.
Take “MERS-five-helix bundle (MERS-5HB) (from UniProt K0BRG7) (designed binder)”: in the test with MERS-HR2P (MERS-CoV) [2], the Kd turned out to be 0.24 nM, the off-rate constant (koff) is 1.26e-05 s⁻¹ and the kon stood at 52600 M⁻¹ s⁻¹. The same substance came in with an EC50 with MERS-HR2P (MERS-CoV) [3] of 5.4 nM.
